From the nanobody polyreactivity screen of Harvey et al. (2022)

Experiment: yeast display, Sf9 membrane polyspecificity reagent, FACS + sequencing; frameworks hold sequencing errors
Method in brief: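 Galactose-induced (36–48 hours) yeast carrying a synthetic nanobody display library were exposed to 10% biotinylated, detergent-solubilized Sf9 membrane reagent at 4 °C for 1 hour. FACS followed streptavidin microbead enrichment, using low and high (top ~1%) gates for expression (anti-HA) and reagent binding (streptavidin). Colony PCR, MiSeq 2 × 250 sequencing and CDR-length filtering followed. Labels for polyreactivity reflect the gate of origin.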

Sequence | polyreactivity (PSR sort gate)
QVQLVESGGGLFQAGGSLRLSCAASGSTFVANAMGWYRQAPGKERELVAAISSSGGSTYYADSVKGRFTISRDIAKNTVYLQMNSLKHDDTAVYYCNARSISRKKGYPPQRRDGYWGQGTQVTVSS | high polyreactivity
QVQLVESGGGLFQAGGSLRLSCAASGSTFYRYTMGWYRQAPGKERELVASISRSGGSTYYADSVKGRFTISRDNAKNTVYLQMNSLKPEDTAVYYCAAKAQGKYYQYNYWGQGTQVTVSS | high polyreactivity
QVQLVESGGGLFQAGGSLRLSCAASGSTFYTNAMGWYRQAPGKERELVAAISWSGGSTYYADSVKGRFTIARDNAKNPVYLQLNSLKPEDTAVYYCDVSGTHFRYDYWGQGTQVTVSS | high polyreactivity
QVQLVESGGGLFQAGGSLRLSCAASGTTFAYYTMGWYIQAPGTERELVAAITSGGRTSYADSVKGRFTISRDNAKNTVYLLMNSLKPEDTAFFSCAKCRKPGYYYWGQGNQVTVSS | high polyreactivity
QVQLVESGGGLFQAGGSLRLSCAASGYIFRSYAMGGYRQAPGKERELVAAITRSGGSTYYADSVKGRFTISRDNAKNTVYFQMNSLKPEDTAVYYCAVLPRGSNGMDYCGQGTQVTVSS | low polyreactivity
QVQLVESGGGLFQAGGSLRLSCAATGRIFYSNAMGWYRQAPGKERELVAAINSRGGRTYYADSLKGRFTISRDNAKNTVYLQMNSLKPEDTAVYYCAAPTGPKGYYSDRGDSWGQGTQVTVSS | high polyreactivity
QVQLVESGGGLFQAGGSLRLSCAATGRTFDPYAMGWYRQAPGKERELVAVISISDGSTYYADSVKGRFTISRDNAKNTVYLQMHSLKPEDTAVYYCAAYVFYDYWTLEYWGQGTQVTVSS | high polyreactivity
QVQLVESGGGLFQAGGSLRLSCAATVSNYRYYAMGWYRQAPGKETELVAYITSSGGSTYYADSVKGLFTISRDYAKNTVYLQMNSLKPEDTAVYYCAALSWLYVYPFTEYDYWGQGTQVTVSS | low polyreactivity
QVQLVESGGGLFQAGGSLRLSCDPSGSIFEYYAMGWYRQAPGKERELVAAITQSGGSTYYADSVKGRFHKFTRQCEEYRLFPDEQPETGRYRGISLAADAECYQNDYALDYWGQGTQVTVSS | low polyreactivity
QVQLVESGGGLFQAGGSLRLTCAASGFTFSYNAMGWYRQAPGKERELVAAISSSGGSTYYADSVKVRFTISRENAKNTVYLPMNSLKPVDTAVYYCAVPYLTLYGRTYDYWGQGTLVTVSS | high polyreactivity
QVQLVESGGGLFQAGGTLRLSCDASGLIFLSYGMAWYRQAPGKERELVAAISSGGSTYYADSVKGRFTISRDNAKNTDYLQMNSLKPEDTAVYYCASEQPIEFDHWGQGTQVTVSS | low polyreactivity
QVQLVESGGGLFQAGRSLRLSCAASGRIFVANAMGWYRQAPGIERELVAAISGRGSRTYYADSVKGRFTISRDNAKNTVYLQMNSLKPEDTAVYYCAARYRYDGRYDYWGQGTQVTVSS | high polyreactivity
QVQLVESGGGLFQAVGSLRLSCAASGFIFYDYAMGWYRQAPGKEMELVAAISKRGGSTYYADSVKGRFTISRDNAKNTVYLQMNSLKPEDTADYYCAAALWGWRYYYWGQGTQVTVSS | high polyreactivity
QVQLVESGGGLFQEGGSLRLSCAASGRIFGPYDMGWYRQAPGKERELVAAISQRGGTTYYADSVKGRFTISRDNAKNTVYLQMNSLKPEVTAVYYCAPKTYGWGQGTQVNVSS | high polyreactivity
QVQLVESGGGLFQEGGSLRLSCAASGRTFKYYAMGWYRQAPGKERELVASISQSGTSTYYADSVKGRFTISRDNAKSTVYLQLNSLKPEDTAVYFCGARTRYRYYSYGYWGQATQVTVSS | high polyreactivity
QVQLVESGGGLFQSGGSLRLSCAASGITFRYYAMGWYRQAPGKERELVAAISSGGSTNYADSVKGRFTISRDNAKNSVYLQINSLKPEDTAVYYCYRRVYSRRYYGYYYWGQGTQVTVSS | high polyreactivity
QVQLVESGGGLGEAGGSLRLSCAASGSTFGYYAMGWYRQAAGKEREFVAAITGNSDNTYYADSVKGRFTISRDNATNTVYLQMNSLKPEDTAVYYCNDALDPFRFEYWRQGTQVTVSS | low polyreactivity
